In the Immune Epitope Database (IEDB) one finds Kd data, which are given here for 15 sequences.

Where only a bound is given, the exact number is not on record here.

In this experiment the target is HLA-A*02:01. Nature of the experiment: IEDB peptide-MHC binding, purified MHC/direct/fluorescence; filed as Kd, often an IC50 or EC50 that approximates it; ≥ and ≤ were set here for values at or beyond the usual limits of such assays. As to conditions: source organism: Mycobacterium tuberculosis H37Rv.

The Kd is the free concentration of one partner at which half of the binding sites on the other are occupied at equilibrium, for simple one-to-one binding. Consider AIYDTMQYV, for which the Kd was at most 1 nM.

As to ALDEGLLPV, the Kd was at most 1 nM.

In the case of ALLGGLRPV, the Kd is at most 1 nM.

AMAGSIDLL showed a Kd of 4 nM.

GMFANRWII registered a Kd of 27 nM.

Take HLDDVGFLV: the Kd was at most 1 nM.

KLQERLAKL came in with a Kd of 18 nM.

LLYDGSFAV returned a Kd of at most 1 nM.

Consider SLIDLLHKI, for which the dissociation constant (Kd) is at most 1 nM.

SLRNWIATL came in with a Kd of 66 nM.

Take SLWKDGAPL: the Kd stood at 5 nM.

Sequence WLYPGAQNL displayed a Kd of at most 1 nM.

The sequence YLLADTFTV gave a Kd of at most 1 nM.

YLPDPTVGV returned a Kd of at most 1 nM.

Take YVYPDNLPV: the dissociation constant Kd stood at 2 nM.
